Assay results published in publication PMC7292776.

Target: typhoid toxin PltB homopentamer (S. Typhi PltB, wild type) (Salmonella enterica serovar Typhi) (UniProt Q8Z6A3)
Assay: crystal structure

Substance: typhoid toxin PltB homopentamer (S. Typhi PltB, wild type) (from UniProt Q8Z6A3 1-137) (natural protein)
- stoichiometry N: 5
